Holding throughout (experiment): FRET by FACS (LSRII)
In general terms: In flow cytometry, cells or beads pass a laser one at a time.

In one experiment the target is WT TACI-YFP. The conditions noted are these: HEK-293T cells, double positive YFP and mCherry gate, 6 independent experiments, read off a plot.
Experiment [1] deals with TACI-L (long TACI isoform) labeled with mCherry or YFP (UniProt O14836). To be noted: co-transfected HEK-293T cells; percent of live cells in the gate, averaged for 6 experiments.
Chain of TACI-L (long TACI isoform) labeled with mCherry or YFP (O14836 whole entry, canonical isoform): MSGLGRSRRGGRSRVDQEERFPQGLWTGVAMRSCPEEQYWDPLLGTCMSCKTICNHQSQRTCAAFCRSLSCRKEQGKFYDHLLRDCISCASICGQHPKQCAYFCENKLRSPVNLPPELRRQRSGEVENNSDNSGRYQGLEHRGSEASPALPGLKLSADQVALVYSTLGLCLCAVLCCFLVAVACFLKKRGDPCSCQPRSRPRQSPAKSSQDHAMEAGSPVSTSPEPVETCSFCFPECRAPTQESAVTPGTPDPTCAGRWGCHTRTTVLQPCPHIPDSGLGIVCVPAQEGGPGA
The target in experiment [2] is TACI-S (short TACI isoform) labeled with mCherry or YFP, O14836-2. The conditions noted are these: co-transfected HEK-293T cells; percent of live cells in the gate, averaged for 6 experiments.
Chain of TACI-S (short TACI isoform) labeled with mCherry or YFP, O14836-2 (O14836 other isoform, or with tags, fused parts or gaps): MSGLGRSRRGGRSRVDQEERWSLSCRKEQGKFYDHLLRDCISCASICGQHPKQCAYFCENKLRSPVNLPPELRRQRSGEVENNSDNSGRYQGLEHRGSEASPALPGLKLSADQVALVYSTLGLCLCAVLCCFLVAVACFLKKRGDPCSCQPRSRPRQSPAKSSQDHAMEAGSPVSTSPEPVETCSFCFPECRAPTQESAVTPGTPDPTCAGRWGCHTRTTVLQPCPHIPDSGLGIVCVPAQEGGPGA
The target of experiment [3] is CD40-eYFP (pReceiver-huCD40-eYFP) (UniProt P25942). The conditions noted are these: co-transfected HEK-293T cells; percent of live cells in the gate, averaged for 6 experiments.
Chain of CD40-eYFP (pReceiver-huCD40-eYFP) (P25942 21-277): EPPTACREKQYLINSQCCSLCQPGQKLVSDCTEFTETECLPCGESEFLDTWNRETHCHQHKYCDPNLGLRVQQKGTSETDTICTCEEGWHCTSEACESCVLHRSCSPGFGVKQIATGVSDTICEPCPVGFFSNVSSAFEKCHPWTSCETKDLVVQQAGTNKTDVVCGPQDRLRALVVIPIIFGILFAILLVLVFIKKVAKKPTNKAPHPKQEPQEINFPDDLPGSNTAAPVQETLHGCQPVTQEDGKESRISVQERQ

Regarding TACI-S C104R, the response (% FRET positive cells) in the experiment with WT TACI-YFP (parent: est. 72) was 74.

Consider “WT TACI (isoform of the mutant not stated in the panel) C104R”, for which the values for the response (% FRET positive cells) in experiment [1], in experiment [2] and in experiment [3] were 14.8, 18.7 and 0.02, respectively.

As for TACI-L C104R, the response (% FRET positive cells) in the experiment with WT TACI-YFP (parent: est. 90) came to 81.

With TACI-L A181E, in the experiment with WT TACI-YFP (parent: est. 90), the response (% FRET positive cells) came to 72.

With “WT TACI (isoform of the mutant not stated in the panel) A181E”, the response (% FRET positive cells) is 16.8 in experiment [1], 19.6 in experiment [2] and 0.38 in experiment [3].

Regarding TACI-S A181E, in the experiment with WT TACI-YFP (parent: est. 72), the response (% FRET positive cells) is 88.

The record behind these values is publication PMC6176016.
